{
  "source": "the supplement of paper PMC10567573",
  "parents": {"B1": {"name": "PSD2 (parent)", "chain": "LTHFSRRYCQCNPDDSTSEDGIHT"}, "B2": {"name": "ANKRD17 (parent)", "chain": "EVLRRLTSSVSCALDEAAAALTRM"}},
  "data": [
    {"variants_of": "B1", "assay": "protein stability index of a GFP-peptide fusion (GPS, HEK-293T) (PSI 1-6); higher = more stable", "conditions": "c terminus: a fixed tail appended", "values": [
      {"variant": "LTHFSRRYCQCNPDRSTSEDGIHT", "note": "[D15R]", "protein stability index": 2.63},
      {"variant": "LTHFSRRYCQCNPDLSTSEDGIHT", "note": "[D15L]", "protein stability index": 2.26},
      {"variant": "LTHFSRRYCQCNPDSSTSEDGIHT", "note": "[D15S]", "protein stability index": 2.96},
      {"variant": "LTHFSRRYCQCNPDHSTSEDGIHT", "note": "[D15H]", "protein stability index": 2.86},
      {"variant": "LTHFSRRYCQCNPDASTSEDGIHT", "note": "[D15A]", "protein stability index": 2.69},
      {"variant": "LTHFSRDYCQCNPDDSTSEDGIHT", "note": "[R7D]", "protein stability index": 4.69},
      {"variant": "LTHFSRCYCQCNPDDSTSEDGIHT", "note": "[R7C]", "protein stability index": 3.15},
      {"variant": "LTHFSYRYCQCNPDDSTSEDGIHT", "note": "[R6Y]", "protein stability index": 2.74},
      {"variant": "LTHFSTRYCQCNPDDSTSEDGIHT", "note": "[R6T]", "protein stability index": 3.78},
      {"variant": "LTHFSLRYCQCNPDDSTSEDGIHT", "note": "[R6L]", "protein stability index": 3.3},
      {"variant": "LTHFSDRYCQCNPDDSTSEDGIHT", "note": "[R6D]", "protein stability index": 4.93},
      {"variant": "LTHFSSRYCQCNPDDSTSEDGIHT", "note": "[R6S]", "protein stability index": 4.02},
      {"variant": "LTHFSNRYCQCNPDDSTSEDGIHT", "note": "[R6N]", "protein stability index": 4.12},
      {"variant": "LTHFSIRYCQCNPDDSTSEDGIHT", "note": "[R6I]", "protein stability index": 2.75},
      {"variant": "LTHFSRRYCQCNPDDSTSEDGIHY", "note": "[T24Y]", "protein stability index": 2.34},
      {"variant": "LTHFSRRYCQCNPDDSTSEDGIHG", "note": "[T24G]", "protein stability index": 3.27},
      {"variant": "LTHFSRRYCQCQPDDSTSEDGIHT", "note": "[N12Q]", "protein stability index": 3.13},
      {"variant": "LTHFSRRYCQCDPDDSTSEDGIHT", "note": "[N12D]", "protein stability index": 4.66},
      {"variant": "LTHFSRRYCQCVPDDSTSEDGIHT", "note": "[N12V]", "protein stability index": 3.11},
      {"variant": "LTHFSRRYCQCPPDDSTSEDGIHT", "note": "[N12P]", "protein stability index": 3.63},
      {"variant": "LTHFSRRYCQCNPDDSTDEDGIHT", "note": "[S18D]", "protein stability index": 4.03},
      {"variant": "LTHFSRRYCQDNPDDSTSEDGIHT", "note": "[C11D]", "protein stability index": 4.31},
      {"variant": "LTHFSRRYCQPNPDDSTSEDGIHT", "note": "[C11P]", "protein stability index": 4.41},
      {"variant": "LTHFSRRYCQNNPDDSTSEDGIHT", "note": "[C11N]", "protein stability index": 4.41},
      {"variant": "LTHFSRRYCQCNPDDSTSQDGIHT", "note": "[E19Q]", "protein stability index": 3.39},
      {"variant": "LTHFSRRYCQCNPDDSTSTDGIHT", "note": "[E19T]", "protein stability index": 3.02},
      {"variant": "LTHFSRRYCQCNPDDSTSWDGIHT", "note": "[E19W]", "protein stability index": 1.87},
      {"variant": "LTHFSRRYCQCNPDDSTSPDGIHT", "note": "[E19P]", "protein stability index": 2.37},
      {"variant": "LTHFSRRYCQCNPDDSESEDGIHT", "note": "[T17E]", "protein stability index": 3.41},
      {"variant": "LTHFSRRYCQCNPDDSWSEDGIHT", "note": "[T17W]", "protein stability index": 2.17},
      {"variant": "LTHFSRRYCQCNPDDSYSEDGIHT", "note": "[T17Y]", "protein stability index": 2.39},
      {"variant": "LTHFSRRYCQCNPDDSISEDGIHT", "note": "[T17I]", "protein stability index": 2.85},
      {"variant": "LTHFSRRYCQCNPDDSMSEDGIHT", "note": "[T17M]", "protein stability index": 3.09},
      {"variant": "LTHFSRRYCQCNNDDSTSEDGIHT", "note": "[P13N]", "protein stability index": 3.38},
      {"variant": "LTHFSRRYCQCNFDDSTSEDGIHT", "note": "[P13F]", "protein stability index": 2.68},
      {"variant": "LTHFSRRYCQCNHDDSTSEDGIHT", "note": "[P13H]", "protein stability index": 2.76},
      {"variant": "LTHFSRRYCQCNKDDSTSEDGIHT", "note": "[P13K]", "protein stability index": 3.02},
      {"variant": "LTHFSRRYCQCNYDDSTSEDGIHT", "note": "[P13Y]", "protein stability index": 2.44},
      {"variant": "LTHFSRRYCQCNWDDSTSEDGIHT", "note": "[P13W]", "protein stability index": 1.94},
      {"variant": "LTHFSRRYCQCNTDDSTSEDGIHT", "note": "[P13T]", "protein stability index": 3.5},
      {"variant": "LTHFSRRYCKCNPDDSTSEDGIHT", "note": "[Q10K]", "protein stability index": 2.71},
      {"variant": "LTHFSRRYCMCNPDDSTSEDGIHT", "note": "[Q10M]", "protein stability index": 2.19},
      {"variant": "LTHFSRRYCNCNPDDSTSEDGIHT", "note": "[Q10N]", "protein stability index": 2.18},
      {"variant": "LTHFSRRYCRCNPDDSTSEDGIHT", "note": "[Q10R]", "protein stability index": 2.24},
      {"variant": "LTHFSRRYCWCNPDDSTSEDGIHT", "note": "[Q10W]", "protein stability index": 2.51},
      {"variant": "LTHFSRRYCPCNPDDSTSEDGIHT", "note": "[Q10P]", "protein stability index": 3.41},
      {"variant": "LTHFSRRYCQCNPDDSTSEDGGHT", "note": "[I22G]", "protein stability index": 3.66},
      {"variant": "LTHFSRRYCQCNPDDSTSEDGQHT", "note": "[I22Q]", "protein stability index": 3.85},
      {"variant": "LTHFSRRYCQCNPDDSTSEDGFHT", "note": "[I22F]", "protein stability index": 2.72},
      {"variant": "LTHFSRRYCQCNPDDSTSEDGIKT", "note": "[H23K]", "protein stability index": 2.92},
      {"variant": "LTHFSRRYCQCNPDDSTSEDGICT", "note": "[H23C]", "protein stability index": 3.16},
      {"variant": "LTHFSRRYCQCNPDDSTSEDGIMT", "note": "[H23M]", "protein stability index": 3.82},
      {"variant": "LTHFSRRYCQCNPDDSTSEDGILT", "note": "[H23L]", "protein stability index": 3.73},
      {"variant": "LQHFSRRYCQCNPDDSTSEDGIHT", "note": "[T2Q]", "protein stability index": 2.87},
      {"variant": "LHHFSRRYCQCNPDDSTSEDGIHT", "note": "[T2H]", "protein stability index": 3.9},
      {"variant": "LEHFSRRYCQCNPDDSTSEDGIHT", "note": "[T2E]", "protein stability index": 4.41},
      {"variant": "LFHFSRRYCQCNPDDSTSEDGIHT", "note": "[T2F]", "protein stability index": 2.63},
      {"variant": "LIHFSRRYCQCNPDDSTSEDGIHT", "note": "[T2I]", "protein stability index": 3.01},
      {"variant": "LNHFSRRYCQCNPDDSTSEDGIHT", "note": "[T2N]", "protein stability index": 3.74},
      {"variant": "LTHVSRRYCQCNPDDSTSEDGIHT", "note": "[F4V]", "protein stability index": 3.16},
      {"variant": "LTHQSRRYCQCNPDDSTSEDGIHT", "note": "[F4Q]", "protein stability index": 3.73},
      {"variant": "LTHNSRRYCQCNPDDSTSEDGIHT", "note": "[F4N]", "protein stability index": 4.51},
      {"variant": "LTHFSRRYHQCNPDDSTSEDGIHT", "note": "[C9H]", "protein stability index": 3.84},
      {"variant": "LTHFSRRYQQCNPDDSTSEDGIHT", "note": "[C9Q]", "protein stability index": 5.06},
      {"variant": "LTHFSRRYNQCNPDDSTSEDGIHT", "note": "[C9N]", "protein stability index": 4.09},
      {"variant": "LTHFSRRYVQCNPDDSTSEDGIHT", "note": "[C9V]", "protein stability index": 4.13},
      {"variant": "ITHFSRRYCQCNPDDSTSEDGIHT", "note": "[L1I]", "protein stability index": 3.69},
      {"variant": "YTHFSRRYCQCNPDDSTSEDGIHT", "note": "[L1Y]", "protein stability index": 1.62},
      {"variant": "LTHFSRRYCQCNPDDSTSEDTIHT", "note": "[G21T]", "protein stability index": 4.09},
      {"variant": "LTHFSRRYCQCNPDDSTSEDDIHT", "note": "[G21D]", "protein stability index": 3.73},
      {"variant": "LTHFSRRYCQCNPDDSTSEDLIHT", "note": "[G21L]", "protein stability index": 3.25},
      {"variant": "LTHFSRRYCQCNPDDSTSEDQIHT", "note": "[G21Q]", "protein stability index": 3.25},
      {"variant": "LTHFSRRYCQCNPNDSTSEDGIHT", "note": "[D14N]", "protein stability index": 2.45},
      {"variant": "LTHFSRRYCQCNPMDSTSEDGIHT", "note": "[D14M]", "protein stability index": 2.27},
      {"variant": "LTHFSRRYCQCNPPDSTSEDGIHT", "note": "[D14P]", "protein stability index": 2.06},
      {"variant": "LTHFSRRYCQCNPLDSTSEDGIHT", "note": "[D14L]", "protein stability index": 2.13},
      {"variant": "LTHFSRRGCQCNPDDSTSEDGIHT", "note": "[Y8G]", "protein stability index": 3.57},
      {"variant": "LTHFSRRPCQCNPDDSTSEDGIHT", "note": "[Y8P]", "protein stability index": 4.36},
      {"variant": "LTHFSRRMCQCNPDDSTSEDGIHT", "note": "[Y8M]", "protein stability index": 3.62},
      {"variant": "LTHFSRRHCQCNPDDSTSEDGIHT", "note": "[Y8H]", "protein stability index": 3.88},
      {"variant": "LTYFSRRYCQCNPDDSTSEDGIHT", "note": "[H3Y]", "protein stability index": 3.13},
      {"variant": "LTVFSRRYCQCNPDDSTSEDGIHT", "note": "[H3V]", "protein stability index": 3.69},
      {"variant": "LTHFWRRYCQCNPDDSTSEDGIHT", "note": "[S5W]", "protein stability index": 1.94},
      {"variant": "LTHFSRRYCQCNPDDSTSELGIHT", "note": "[D20L]", "protein stability index": 2.31},
      {"variant": "LTHFSRRYCQCNPDDSTSEIGIHT", "note": "[D20I]", "protein stability index": 1.97},
      {"variant": "LTHFSRRYCQCNPDDYTSEDGIHT", "note": "[S16Y]", "protein stability index": 2.88},
      {"variant": "LTHFSRRYCQCNPDDITSEDGIHT", "note": "[S16I]", "protein stability index": 3.18},
      {"variant": "LTHFSRRYCQCNPDDVTSEDGIHT", "note": "[S16V]", "protein stability index": 3.15},
      {"variant": "LTHFSRRYCQCNPDDPTSEDGIHT", "note": "[S16P]", "protein stability index": 2.86},
      {"variant": "LTHFSRRYCQCNPDDKTSEDGIHT", "note": "[S16K]", "protein stability index": 3.48}
    ]},
    {"variants_of": "B2", "assay": "protein stability index of a GFP-peptide fusion (GPS, HEK-293T) (PSI 1-6); higher = more stable", "conditions": "c terminus: a fixed tail appended", "values": [
      {"variant": "EVLRRLTSSVSCALDEAAKALTRM", "note": "[A19K]", "protein stability index": 2.6},
      {"variant": "EVLRRLTSSVSCALDEAAGALTRM", "note": "[A19G]", "protein stability index": 2.3},
      {"variant": "EVLRRLTSSVSCALDEAAEALTRM", "note": "[A19E]", "protein stability index": 2.12},
      {"variant": "EVLRRLTSSVSCALDEAAVALTRM", "note": "[A19V]", "protein stability index": 2.99}
    ]}
  ]
}
